In IntAct's records for PubMed 10102273:

B1: Forkhead box protein O3 (Homo sapiens), O43524 (parent)
chain: MAEAPASPAPLSPLEVELDPEFEPQSRPRSCTWPLQRPELQASPAKPSGETAADSMIPEEEDDEDDEDGGGRAGSAMAIGGGGGSGTLGSGLLLEDSARVLAPGGQDPGSGPATAAGGLSGGTQALLQPQQPLPPPQPGAAGGSGQPRKCSSRRNAWGNLSYADLITRAIESSPDKRLTLSQIYEWMVRCVPYFKDKGDSNSSAGWKNSIRHNLSLHSRFMRVQNEGTGKSSWWIINPDGGKSGKAPRRRAVSMDNSNKYTKSRGRAAKKKAALQTAPESADDSPSQLSKWPGSPTSRSSDELDAWTDFRSRTNSNASTVSGRLSPIMASTELDEVQDDDAPLSPMLYSSSASLSPSVSKPCTVELPRLTDMAGTMNLNDGLTENLMDDLLDNITLPPSQPSPTGGLMQRSSSFPYTTKGSGLGSPTSSFNSTVFGPSSLNSLRQSPMQTIQENKPATFSSMSHYGNQTLQDLLTSDSLSHSDVMMTQSDPLMSQASTAVSAQNSRRNVMLRNDPMMSFAAQPNQGSLVNQNLLHHQHQTQGALGGSRALSNSVSNMGLSESSSLGSAKHQQQSPVSQSMQTLSDSLSGSSLYSTSANLPVMGHEKFPSDLDLDMFNGSLECDMESIIRSELMDADGLDFNFDSLISTQNVVGLNVGNFTGAKQASSQSWVPG

Variants of: B1
Conditions: with 1433z_human YWHAZ

Variant | effect of a mutation on the interaction
T32A | decreasing interaction strength
T32A;S253A | disrupting interaction strength

Now from value to variant:

effect of a mutation on the interaction | Variant
with no effect | S315A
decreasing interaction strength | S253A

Variants of: B1
Conditions: with akt1_human AKT1, P31749
Chain of akt1_human AKT1, P31749 (P31749 whole entry): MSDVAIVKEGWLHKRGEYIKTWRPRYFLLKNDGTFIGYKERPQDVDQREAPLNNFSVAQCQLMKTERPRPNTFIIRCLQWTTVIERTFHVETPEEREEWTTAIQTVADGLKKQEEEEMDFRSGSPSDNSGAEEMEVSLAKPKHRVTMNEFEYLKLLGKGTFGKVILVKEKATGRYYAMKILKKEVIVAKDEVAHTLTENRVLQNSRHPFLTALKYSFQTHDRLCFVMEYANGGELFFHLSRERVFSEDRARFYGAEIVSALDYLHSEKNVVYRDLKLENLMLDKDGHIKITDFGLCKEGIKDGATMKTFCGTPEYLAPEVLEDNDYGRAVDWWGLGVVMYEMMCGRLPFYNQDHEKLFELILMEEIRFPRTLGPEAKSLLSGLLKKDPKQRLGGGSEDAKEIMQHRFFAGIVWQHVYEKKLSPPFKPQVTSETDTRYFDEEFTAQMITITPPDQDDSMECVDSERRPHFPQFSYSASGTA

effect of a mutation on the interaction | Variant
with no effect | S315A
